# B1: PuhB: phenylurea hydrolase from Mycobacterium brisbanense JK1, amino acid sequence SEQ ID NO:1 (protein)
# chain: MSTIAITNVTLIDGLGGLPRPATTVIVEGDRFATVGPSDSTPVPEGATVVDGNRRWMVPGYVNGNVHLLDAWMFMAGPGTIEYLARWEGRYVEVIEEAAQLALRNGVTTVFDTHNAIEPVLAARDRINAGISQGARIFAAGTIVGMGGPFSADFHFAGRTAATRTFVDRIDSMFEAGVGHQLSLLPRKEVRARVRDYLSRGVDMLKIAVSDHIVFTLVDRSVGFDRSYQTFSRPVLEVMVEEARAAGVPVLTHSVSVEALDTSVELGADVLIHANYTLGQEIPNYLIDKIVASDSWAGLQTVHDQHRQGLEDVGSWAAALAGEPYATNERNLISANAKILLNTDAGCPSKDHLADLSPVEREDRPWTIGNDHFHWTQSMVEKGMSPLEAISAATINVARAYGKADQIGSVETGKLADFVLLDQDPVDDIRNLRSITEVFQAGAAVDRAALPTTPLVTAHPA
# modifications: Mycobacterium brisbanense JK1
# How the values were obtained:
# [1] = tested on: Mycobacterium brisbanense strain JK1; experiment: Degradation of diuron and accumulation of DCA in liquid culture; type: cell-based; details: alternate nitrogen source present
# Experimental: MM (50 mL) supplemented with 10 mM glucose, 0.13 mM diuron and 18.7 mM ammonium chloride (as required) were inoculated with 0.2% of a homogeneous suspension of freshly grown M. brisbanense strain JK1 cells (0D600=˜10). Cultures were incubated at 28° C. with shaking at 200 rpm, in the dark. Samples were taken at ˜24 hour intervals, and metabolites were extracted in 50% acetonitrile, filtered and analysed by HPLC.
# [2] = neutral buffer; estimated from the work of Salvestrini et al. (2002); cited from earlier work
# [3] = target: PuhB (Mycolicibacterium brisbanense, UniProt B8R4K0); experiment: Hydrolysis of phenylurea, carbamate and organophosphate substrates by purified PuhB (LCMS / FBBS / A400 assays); details: PuhB
# [4] = Activity of native PuhA and PuhB at each purification step (DCA formation); type: biochemical
# Excerpt: (§1) Protein concentration was estimated using the Bio-rad protein assay (Bradford), with bovine serum albumin used as standard. Protein purity was monitored using sodium dodecyl sulphate-polyacrylamide gel electrophoresis (SDS-PAGE) stained with Coomassie brilliant blue. Where PuhA and B concentrations were estimated in semi purified extracts, SDS-PAGE gels were scanned using Labscan v5 (Amersham Biosciences) and band densitometry performed with Total lab TL100 (Nonlinear dynamics). Talon cobalt resin (BD Biosciences) was used for the purification of hexa-histidine tagged protein. Untagged protein was purified by ammonium sulfate (AS) precipitiation followed by hydrophobic interaction chromatography (HIC; Phenylsepharose), anion exchange chromatography (AEX; Macro Q) and size exclusion chromatography (SEC; Superose 6 or Sephadex 200). All columns were purchased from GE Healthcare. The hydrophobic interaction column was equilibrated with Tris (pH 8)/1 M ammonium sulfate and bound protein was then eluted with Tris (pH 8) over 400 mL. Protein was bound to the anion exchange column with Tris (pH 8) and eluted with a gradient of Tris (pH 8)/1 M NaCl over 500 mL. The buffer was exchanged to 25 mM HEPES/50 mM KCl (pH 8) during SEC and the protein was stable in this buffer at 4° C. for several weeks. The oligomeric structure was estimated with a Superose 6 size exclusion column calibrated with the following protein standards (kDa): thyroglobulin (669), ferritin (440), catalase (232) and aldolase (158). Standard tryptic peptide mass fingerprinting was used to confirm the identity of proteins excised from polyacrylamide gels by liquid chromatography electro spray ionisation mass spectroscopy/mass spectroscopy (LC ESI MS/MS) ion trap following the method of Campbell et al. (2008).
# [5] = Activity of PuhA and PuhB expressed in M. smegmatis at each purification step (PNP release); type: biochemical
# Experimental: (§2) Pwo polymerase (Roche) and restriction enzymes NdeI, BamHI and HindIII (Fermentas) were used following manufacturers' protocols. Electro-competent E. coli strains JM109 (Promega) were utilised for transformation of ligation reactions (using Promega ligase). Protein expressions in E. coli were inoculated (1% v/v) with an overnight seed culture in LB and then incubated with shaking at 20° C. for 11 hours followed by induction with 0.1 mM isopropyl-β-D-thiogalactopyranoside (IPTG) for 3 hours. M. smegmatis expressions were amended with 0.05% tween 80 and grown in LB at 28° C. for 2-4 days with no induction. Clarified cell-free extracts were obtained by resuspending the bacteria in 25 mM Tris (pH 8) followed by 3 passes through a French pressure cell (Thermo) and centrifugation at 27,000 g (Beckman Avanti).
# as §1
# [6] = Diuron hydrolase activity in the soluble fraction of recombinant expression hosts; type: biochemical
# Excerpt: PuhA and PuhB were amplified as N-hexa-histidine tagged fusions from pET14b (Novagen) in E. coli rosetta II cells (Novagen) and pMV261 (Stover et al., 1991) in M. smegmatis mc2. Protein without hexa-histidine tags was later expressed in M. smegmatis mc2. The PCR primers used in these cloning procedures are noted in Table 2 (SEQ ID NOs 5 to 13).
# as §2
# [7] = Thermal stability: residual activity after 10 minutes pre-incubation, Boltzmann fit; type: biochemical
# Experimental: (§3) The influence of solvents (acetonitrile and methanol) was examined by using 7 concentrations from 0.4-18.2% over 1 hour duplicate assays with 77 μM diuron and monitored by LCMS. The effect of temperature on the activity of the enzymes was determined in two ways: firstly, the temperature at which reaction was catalysed was controlled at 12 temperatures ranging from 2-60° C. with 154 μM diuron; secondly, enzyme was preincubated at 6 temperatures from 30-55° C. for 10 minutes prior to 1 hour assays at 25° C. The residual activity data was obtained by LCMS and fitted to the Boltzmann function (eq 1)
# (§4) A bell shaped model (eq 2)
# [8] = Stability in the presence of the solvents acetonitrile and methanol; type: biochemical; details: 1-18% v/v solvent
# Experimental: as §3
# [9] = pH dependence of kcat, kcat/Km and Km with diuron in constant ionic strength buffer; type: biochemical
# Excerpt: as §4
# (§5) was used to fit an activity y, either log(kcat) and log(kcat/Km) vs. pH. (y)^max is the plateau value and pKa^1 and pKa^2 are the apparent pKa values for the acidic and basic groups, respectively. Equations were fitted to the data using Kaleidagraph v3.6 (Synergy Software). The substrate pKa values were obtained via an online database www.syrres.com/esc/physdemo.htm (Syracuse Research Corporation).
# [10] = Bronsted plots (pKa of leaving group vs log kcat) for N-dimethyl phenylureas; type: biochemical; details: slope between pKa 4-5
# Excerpt: as §5
molecule,measurement,setting,value
"CN(C)C(=O)Nc1ccc(Cl)c(Cl)c1 [diuron, N′-3,4-dichlorophenyl N-dimethylurea]","degradation of diuron (loss of diuron, accumulation of DCA)",[1],degradation of diuron was confirmed
same,knon,[2],2.8e-10 s⁻¹
same,kcat,[3],0.48 s⁻¹
same,rate enhancement kcat/knon,[3]; diuron,1.7×10^9
B1,Activity (nmol DCA/μg/hour),[4]; AS (ammonium sulfate),0.24 nmol DCA/μg/hour
same,Activity (nmol DCA/μg/hour),[4]; CFE (cell free extract),0.05 nmol DCA/μg/hour
same,Activity (nmol DCA/μg/hour),[4]; HIC,0.24 nmol DCA/μg/hour
same,Activity (nmol DCA/μg/hour),[4]; SEC,0.04 nmol DCA/μg/hour
same,Activity (mM PNP/mg/min),[5]; AEX,3.9 mM PNP/mg/min
same,Activity (mM PNP/mg/min),[5]; CFE,0.1 mM PNP/mg/min
same,Activity (mM PNP/mg/min),[5]; HIC,1.4 mM PNP/mg/min
same,Activity (mM PNP/mg/min),[5]; SEC,4.3 mM PNP/mg/min
same,activity in the soluble fraction (in words),[6]; expressed in E. coli Rosetta 2 DE3 from pET14b,no activity was detected
same,activity in the soluble fraction (in words),[6]; expressed in M. smegmatis from pMV261,displayed diuron hydrolase activity
same,residual activity after incubation (in words),[7]; 10 minutes incubation at 40° C.,retaining significant activity
same,Tm indicating 50% activity retained,"[7]; 10 minutes pre-incubation, then 1 hour assay at 25° C.",46.0 °C
same,activity in the presence of methanol and acetonitrile (in words),[8],significantly inhibited
same,pKe1,[9]; acidic shoulder,5.0
same,pKes1,[9]; acidic shoulder,5.0
same,pKe2,[9]; basic shoulder,9.6
same,pKes2,[9]; basic shoulder,10.6
same,pKe of the decrease in catalytic efficiency,[9]; basic side,~10
same,βlg,[10],−1.1
